Results as given in the supplement of paper PMC11246515.
± gives the standard deviation of the averaged measurements.

Experiment: total protein half-life in vivo (active degradation + dilution); higher = more stable protein
[1] = wild type E. coli NCM3722, growth: P-lim chemostat, doubling time 6 h
[2] = wild type E. coli NCM3722, growth: P-lim chemostat, doubling time 12 h
[3] = E. coli NCM3722 delta-clpP delta-lon delta-hslV, growth: N-lim chemostat, doubling time 6 h
[4] = E. coli NCM3722 delta-clpP, growth: N-lim chemostat, doubling time 6 h
[5] = E. coli NCM3722 delta-hslV, growth: N-lim chemostat, doubling time 6 h
[6] = E. coli NCM3722 delta-lon, growth: N-lim chemostat, doubling time 6 h
[7] = E. coli NCM3722 delta-smpB, growth: N-lim chemostat, doubling time 6 h
[8] = wild type E. coli NCM3722, growth: C-lim chemostat, doubling time 3 h
[9] = wild type E. coli NCM3722, growth: C-lim chemostat, doubling time 6 h
[10] = wild type E. coli NCM3722, growth: C-lim chemostat, doubling time 12 h
[11] = wild type E. coli NCM3722, growth: N-lim chemostat, doubling time 6 h
[12] = wild type E. coli NCM3722, growth: N-lim chemostat, doubling time 12 h

Sequence | total protein half-life in vivo [1] [h] | total protein half-life in vivo [2] [h] | total protein half-life in vivo [3] [h] | total protein half-life in vivo [4] [h] | total protein half-life in vivo [5] [h] | total protein half-life in vivo [6] [h] | total protein half-life in vivo [7] [h] | total protein half-life in vivo [8] [h] | total protein half-life in vivo [9] [h] | total protein half-life in vivo [10] [h] | total protein half-life in vivo [11] [h] | total protein half-life in vivo [12] [h]
MNAKIIASLAFTSMFSLSTLLSPAHAEEQEKALNFGIISTESQQNLKPQWTPFLQDMEKKLGVKVNAFFAPDYAGIIQGMRFNKVDIAWYGNLSAMEAVDRANGQVFAQTVAADGSPGYWSVLIVNKDSPINNLNDLLAKRKDLTFGNGDPNSTSGFLVPGYYVFAKNNISASDFKRTVNAGHETNALAVANKQVDVATNNTENLDKLKTSAPEKLKELKVIWKSPLIPGDPIVWRKNLSETTKDKIYDFFMNYGKTPEEKAVLERLGWAPFRASSDLQLVPIRQLALFKEMQGVKSNKGLNEQDKLAKTTEIQAQLDDLDRLNNALSAMSSVSKAVQ | 1.02 ± 0.21 | 2.63 ± 1.1 |  |  |  |  |  |  |  |  |  | 
MNAPFTYSSPTLSVEALKHSIAYKLMFTIGKDPVVANKHEWLNATLFAVRDRLVERWLRSNRAQLSQETRQVYYLSMEFLIGRTLSNAMLSLGIYEDVQGALEAMGLNLEELIDEENDPGLGNGGLGRLAACFLDSLATLGLPGRGYGIRYDYGMFKQNIVNGSQKESPDYWLEYGNPWEFKRHNTRYKVRFGGRIQQEGKKTRWIETEEILGVAYDQIIPGYDTDATNTLRLWSAQASSEINLGKFNQGDYFAAVEDKNHSENVSRVLYPDDSTYSGRELRLRQEYFLVSSTIQDILSRHYQLHKTYDNLADKIAIHLNDTHPVLSIPEMMRLLIDEHQFSWDDAFEVCCQVFSYTNHTLMSEALETWPVDMLGKILPRHLQIIFEINDYFLKTLQEQYPNDTDLLGRASIIDESNGRRVRMAWLAVVVSHKVNGVSELHSNLMVQSLFADFAKIFPGRFTNVTNGVTPRRWLAVANPSLSAVLDEHLGRNWRTDLSLLNELQQHCDFPMVNHAVHQAKLENKKRLAEYIAQQLNVVVNPKALFDVQIKRIHEYKRQLMNVLHVITRYNRIKADPDAKWVPRVNIFGGKAASAYYMAKHIIHLINDVAKVINNDPQIGDKLKVVFIPNYSVSLAQLIIPAADLSEQISLAGTEASGTSNMKFALNGALTIGTLDGANVEMLDHVGADNIFIFGNTAEEVEELRRQGYKPREYYEKDEELHQVLTQIGSGVFSPEDPGRYRDLVDSLINFGDHYQVLADYRSYVDCQDKVDELYELQEEWTAKAMLNIANMGYFSSDRTIKEYADHIWHIDPVRL [P0AC86] | 6.01 ± 0.15 | 11.9 ± 1 | 6.11 ± 0.49 | 5.45 ± 0.2 | 5.71 ± 0.2 | 5.65 ± 0.26 | 5.54 ± 0.24 | 3.18 ± 0.28 | 5.27 ± 0.13 | 10.1 ± 0.57 | 5.448 ± 0.0098 | 10.1 ± 0.65
MNAVTVNDDGLVLRLYIQPKASRDSIVGLHGDEVKVAITAPPVDGQANSHLVKFLGKQFRVAKSQVVIEKGELGRHKQIKIINPQQIPPEIAALIN | 4.68 ± 0.4 | 8.89 ± 0.44 | 5.38 ± 0.38 | 4 ± 0.27 | 4.49 | 5.14 | 4.22 | 2.88 ± 0.76 | 5.35 | 8.02 | 3.58 | 6.29 ± 0.45
MNDLFSLAGKNILITGSAQGIGFLLATGLGKYGAQIIINDITAERAELAVEKLHQEGIQAVAAPFNVTHKHEIDAAVEHIEKDIGPIDVLVNNAGIQRRHPFTEFPEQEWNDVIAVNQTAVFLVSQAVTRHMVERKAGKVINICSMQSELGRDTITPYAASKGAVKMLTRGMCVELARHNIQVNGIAPGYFKTEMTKALVEDEAFTAWLCKRTPAARWGDPQELIGAAVFLSSKASDFVNGHLLFVDGGMLVAV [P0A9P9] | 4.98 ± 0.91 | 6.82 ± 0.6 | 7.23 | 3.69 | 2.75 |  | 2.46 | 2.53 ± 0.38 | 4.78 ± 0.49 | 7.912 ± 0.017 | 3.01 | 
MNDTSFENCIKCTVCTTACPVSRVNPGYPGPKQAGPDGERLRLKDGALYDEALKYCINCKRCEVACPSDVKIGDIIQRARAKYDTTRPSLRNFVLSHTDLMGSVSTPFAPIVNTATSLKPVRQLLDAALKIDHRRTLPKYSFGTFRRWYRSVAAQQAQYKDQVAFFHGCFVNYNHPQLGKDLIKVLNAMGTGVQLLSKEKCCGVPLIANGFTDKARKQAITNVESIREAVGVKGIPVIATSSTCTFALRDEYPEVLNVDNKGLRDHIELATRWLWRKLDEGKTLPLKPLPLKVVYHTPCHMEKMGWTLYTLELLRNIPGLELTVLDSQCCGIAGTYGFKKENYPTSQAIGAPLFRQIEESGADLVVTDCETCKWQIEMSTSLRCEHPITLLAQALA [P0A996] |  |  | 6.38 |  |  |  |  |  |  |  |  | 
MNEFFPLASAAGMTVGLAVCALIVGLALAMFFAVWESAKWRPVAWAGSALVTILRGLPEILVVLFIYFGSSQLLLTLSDGFTINLGFVQIPVQMDIENFDVSPFLCGVIALSLLYAAYASQTLRGALKAVPVGQWESGQALGLSKSAIFFRLVMPQMWRHALPGLGNQWLVLLKDTALVSLISVNDLMLQTKSIATRTQEPFTWYIVAAAIYLVITLLSQYILKRIDLRATRFERRPS [P0AE34] | 6.78 | 12.3 ± 0.57 | 7.86 | 6.25 | 6.66 ± 0.82 | 6.45 |  | 2.92 ± 0.51 | 6.02 ± 0.79 | 11.9 ± 0.15 |  | 11.5 ± 2.6
